Measured values taken from patent publication US20240390418A1 (MINERVA BIOTECHNOLOGIES, published 2024).

T1: NME7AB (Homo sapiens (Human), UniProt Q9Y5B8 92-376)
T1 construct: NME7A in the text appears to be NME7AB; also called NM23-H7; NME7A
T1 sequence: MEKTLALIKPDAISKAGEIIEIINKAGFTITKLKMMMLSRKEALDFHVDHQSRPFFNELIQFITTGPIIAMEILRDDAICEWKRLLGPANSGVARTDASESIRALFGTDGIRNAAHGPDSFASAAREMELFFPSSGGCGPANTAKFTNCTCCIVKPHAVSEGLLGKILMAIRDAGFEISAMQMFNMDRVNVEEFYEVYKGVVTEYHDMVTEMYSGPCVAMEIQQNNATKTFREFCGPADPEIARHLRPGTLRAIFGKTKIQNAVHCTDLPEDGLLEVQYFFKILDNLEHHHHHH

T2: N-10 peptide
T2 construct: also called PSMGFR N-10; PSMGFR minus 10 amino acids from the N-terminus
T2 peptide: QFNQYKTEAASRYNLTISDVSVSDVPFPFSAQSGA

T3: N+9/C-9 peptide
T3 peptide: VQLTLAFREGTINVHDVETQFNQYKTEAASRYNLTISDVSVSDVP

T4: N+20/C-27 peptide
T4 peptide: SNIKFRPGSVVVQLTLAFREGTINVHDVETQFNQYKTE

T5: PSMGFR peptide
T5 construct: also called MUC1* peptide
T5 peptide: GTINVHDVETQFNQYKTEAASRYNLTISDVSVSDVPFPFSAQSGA

T6: MUC1* expressed on HCT-116 cells transfected with MUC1* (extra cellular domain is just the PSMGFR sequence) (Homo sapiens (Human), UniProt P15941 1110-1255)
T6 construct: In Western blot rows the same protein stood denatured in cell lysate; also called HCT-MUC1*; HCT-FLR
T6 sequence: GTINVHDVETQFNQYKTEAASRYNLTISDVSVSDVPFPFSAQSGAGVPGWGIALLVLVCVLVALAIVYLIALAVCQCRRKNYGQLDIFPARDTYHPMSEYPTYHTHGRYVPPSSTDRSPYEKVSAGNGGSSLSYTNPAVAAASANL

T7: N-26 peptide
T7 peptide: ISDVSVSDVPFPFSAQSGA

T8: N-10/C-5 peptide
T8 peptide: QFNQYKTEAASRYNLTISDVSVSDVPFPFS

T9: N-30 peptide
T9 peptide: SVSDVPFPFSAQSGA

T10: N-19/C-5 peptide
T10 peptide: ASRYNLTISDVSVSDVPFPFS

T11: N-19 peptide
T11 peptide: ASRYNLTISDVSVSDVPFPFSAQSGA

B1: C-10 peptide (peptide)
peptide: GTINVHDVETQFNQYKTEAASRYNLTISDVSVSDV
notes: also called PSMGFR C-10; PSMGFR minus 10 amino acids from the C-terminus
B2: mouse monoclonal antibody MNE6 (antibody, V domains shown)
VH: EVKVVESGGDLVKPGGSLKLSCVVSGFTFSRYGMSWVRQTPGKRLEWVATISGGGTYIYYPDSVKGRFTISRDNAKNTLYLQMSSLKSEDTAMYHCTRDNYGRNYDYGMDYWGQGTSVTVSS
VL: QIVLTQSPAIMSASPGEEVTLTCSATSSVSYIHWFQQRPGTSPKLWIYSTSNLASGVPVRFSGSGYGTSYSLTISRMEAEDAATYYCQQRSSSPFTFGSGTKLEIK
notes: Mouse monoclonal raised against the PSMGFR peptide; also called Min-E6
B3: monoclonal antibody 8A9 (antibody, V domains shown)
VH: EVELVESGGGLVQPGGSLRLSCATSGFTFTDHYMSWVRQPPGKALEWLGFIRNKANGYTTEYSASVKGRFTISRDNSQSILYLQMKTLRTEDSATYYCARPSDWDSWFAYWGQGTLVTVSA
VL: DVLMTQTPLSLPVSLGDQASISCRSSQSIVHSNGNTYLDWYLQKPGQSPKLLIYRVSNRFSGVPDRFSGSGSGTDFTLKISRVEAEDLGLYYCFQGSHVPWAFGGGTKLEIK
notes: Raised against the N+9/C-9 peptide; also called N+9/C-9 antibody 8A9

Experiments:
dimeric NME1 = target: T12, dimeric NME1 (Homo sapiens (Human), UniProt P15531 1-152, limits assumed); experiment: ELISA, peptide on plate (FIG. 2D)
T12 construct: also called NM23-H1 dimers; dimeric NM23-H1
Description: (§1) FIGS. 2A-2I show results of ELISA assays. MUC1* peptides PSMGFR, PSMGFR minus 10 amino acids from the N-terminus aka N-10, or PSMGFR minus 10 amino acids from the C-terminus, aka C-10 are immobilized on the plate and the following are assayed for binding: NME7-AB (FIG. 2A), MNC2 monoclonal antibody (FIG. 2B), MNE6 monoclonal antibody (FIG. 2C), or dimeric NME1 (FIG. 2D). […] MUC1* peptides PSMGFR minus 10 amino acids from the N-terminus aka N-10, or PSMGFR minus 10 amino acids from the C-terminus, aka C-10, are immobilized on the plate and the following are assayed for binding: MNC3 (FIG. 2E) and MNC8 (FIG. 2F).

NME7AB = target: T1, NME7AB; experiment: ELISA, peptide on plate (FIG. 2A)
Description: as §1

N-10 peptide [1] = target: T2, N-10 peptide; experiment: ELISA, peptide on plate (FIG. 2B-2C)
N+9/C-9 peptide [2] = target: T3, N+9/C-9 peptide; experiment: ELISA, peptide on plate (FIG. 63)
Description: (§2) ELISA assays were performed to determine if, in addition to recognizing their immunizing peptide, they recognized PSMGFR, N-10 or C-10. In addition, they were tested for their ability to bind to N+20/C-27, N+9/C-9. We first did the ELISA assay on our set of reference antibodies, MNC2, MNE6, which we know are cancer-specific plus MNC3, which we know recognizes stem cells and progenitor cells (FIG. 63A-63B). None of the reference antibodies bound to the N+20/C-27 peptide. MNC2 and MNE6 cannot bind to PSMGFR peptides with 27, 10 or 9 C-terminal deletions, however, MNC3 binds to C-10 and to N+9/C-9 peptides.

N+20/C-27 peptide [3] = target: T4, N+20/C-27 peptide; experiment: ELISA, peptide on plate (FIG. 63)
Description: as §2

C-10 peptide [4] = target: B1; experiment: peptide ELISA
PSMGFR peptide [5] = target: T5, PSMGFR peptide; experiment: ELISA, peptide on plate (FIG. 2C)
[6] = target: T6, MUC1* expressed on HCT-116 cells …; experiment: flow cytometry (FIG. 4D-4F)
N+9/C-9 peptide [7] = target: T3, N+9/C-9 peptide; experiment: ELISA, peptide on plate (FIG. 66)
N+20/C-27 peptide [8] = target: T4, N+20/C-27 peptide; experiment: ELISA, peptide on plate (FIG. 66)
N-26 peptide = target: T7, N-26 peptide; experiment: ELISA, peptide on plate (FIG. 69)
N-10/C-5 peptide = target: T8, N-10/C-5 peptide; experiment: ELISA, peptide on plate (FIG. 69)
N-30 peptide = target: T9, N-30 peptide; experiment: ELISA, peptide on plate (FIG. 69)
N-19/C-5 peptide = target: T10, N-19/C-5 peptide; experiment: ELISA, peptide on plate (FIG. 69)
N-10 peptide [9] = target: T2, N-10 peptide; experiment: ELISA, peptide on plate (FIG. 69)
N-19 peptide = target: T11, N-19 peptide; experiment: ELISA, peptide on plate (FIG. 69)
C-10 peptide [10] = target: B1; experiment: ELISA, peptide on plate (FIG. 69)
[11] = target: T6, MUC1* expressed on HCT-116 cells …; experiment: denaturing Western blot of cell lysates, linear epitope test (FIG. 74)
Description: Antibodies were tested to determine whether they recognize a linear or a conformational epitope. Only antibodies that recognize a linear epitope work in Western blots when using denaturing gels. […] The antibodies tested for comparison are MNC2 and MNE6, which were known to only recognize a conformational epitope, SDIX which is a polyclonal antibody raised against PSMGFR and VU4H5, which is a commercially available monoclonal antibody that recognizes the tandem repeats of full-length MUC1 (FIG. 71A-71D). […] The SDIX polyclonal antibody recognizes HCT-MUC1* but not full-length MUC1 and VU4H5 only recognizes full-length MUC1. These same antibodies were also tested for their ability to work in Western blots of two breast cancer cell lines 1500, aka Zr-75-1, and T47D cells and show the same binding pattern (FIG. 71E-71H).
Antibodies that were raised against the PSMGFR peptide were tested the same way in Western blots (FIG. 72A-72P). […] Antibodies that were raised against the N+20/C-27 peptide were tested the same way in Western blots (FIG. 73A-73J). […] Antibodies 1E4 and 45C11 may recognize a conformational epitope. Antibodies that were raised against the N+9/C-9 peptide were tested the same way in Western blots (FIG. 74A-74H). […] These antibodies may recognize a conformational epitope.

PSMGFR peptide [12] = target: T5, PSMGFR peptide; experiment: ELISA, peptide on plate

T12 sequence (P15531 whole entry): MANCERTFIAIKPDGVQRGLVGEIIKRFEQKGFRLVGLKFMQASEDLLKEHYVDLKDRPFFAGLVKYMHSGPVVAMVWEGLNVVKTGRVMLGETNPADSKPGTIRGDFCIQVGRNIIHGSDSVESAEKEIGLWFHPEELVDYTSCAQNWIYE

Binder: B1
binding result (dimeric NME1): no binding
binding result (NME7AB): no binding

Binder: B2
binding result (N-10 peptide [1]): binds
binding result (N+9/C-9 peptide [2]): no binding (tested: 10 ug/mL or 1 ug/mL)
binding result (N+20/C-27 peptide [3]): no binding
binding result (C-10 peptide [4]): no binding
binding result (PSMGFR peptide [5]): binds
binding result [6]: binds

Binder: B3
binding result (N+9/C-9 peptide [7]): binds
binding result (N+20/C-27 peptide [8]): no binding
binding result (N-26 peptide): no binding
binding result (N-10/C-5 peptide): no binding
binding result (N-30 peptide): no binding
binding result (N-19/C-5 peptide): no binding
binding result (N-10 peptide [9]): no binding
binding result (N-19 peptide): no binding
binding result (C-10 peptide [10]): no binding
binding result [11]: no binding
binding result (PSMGFR peptide [12]): no binding
